Assay results reported in EP4775595A1.

Columns and labels:
[1] = molecular target: human IGF-1R on human non-small cell lung cancer cells (A549) (human) (UniProt P08069); assay: cell-based or functional assay
[2] = molecular target: hIGF-1R-ECD-avi-his (human IGF-1R extracellular region) (human) (UniProt P08069); assay: SPR (Biacore T200), antigen captured by anti-His antibody on CM5 chip, antibody as analyte
Sequence of hIGF-1R-ECD-avi-his (human IGF-1R extracellular region) (human) (P08069 other isoform, or with tags, fused parts or gaps limits assumed): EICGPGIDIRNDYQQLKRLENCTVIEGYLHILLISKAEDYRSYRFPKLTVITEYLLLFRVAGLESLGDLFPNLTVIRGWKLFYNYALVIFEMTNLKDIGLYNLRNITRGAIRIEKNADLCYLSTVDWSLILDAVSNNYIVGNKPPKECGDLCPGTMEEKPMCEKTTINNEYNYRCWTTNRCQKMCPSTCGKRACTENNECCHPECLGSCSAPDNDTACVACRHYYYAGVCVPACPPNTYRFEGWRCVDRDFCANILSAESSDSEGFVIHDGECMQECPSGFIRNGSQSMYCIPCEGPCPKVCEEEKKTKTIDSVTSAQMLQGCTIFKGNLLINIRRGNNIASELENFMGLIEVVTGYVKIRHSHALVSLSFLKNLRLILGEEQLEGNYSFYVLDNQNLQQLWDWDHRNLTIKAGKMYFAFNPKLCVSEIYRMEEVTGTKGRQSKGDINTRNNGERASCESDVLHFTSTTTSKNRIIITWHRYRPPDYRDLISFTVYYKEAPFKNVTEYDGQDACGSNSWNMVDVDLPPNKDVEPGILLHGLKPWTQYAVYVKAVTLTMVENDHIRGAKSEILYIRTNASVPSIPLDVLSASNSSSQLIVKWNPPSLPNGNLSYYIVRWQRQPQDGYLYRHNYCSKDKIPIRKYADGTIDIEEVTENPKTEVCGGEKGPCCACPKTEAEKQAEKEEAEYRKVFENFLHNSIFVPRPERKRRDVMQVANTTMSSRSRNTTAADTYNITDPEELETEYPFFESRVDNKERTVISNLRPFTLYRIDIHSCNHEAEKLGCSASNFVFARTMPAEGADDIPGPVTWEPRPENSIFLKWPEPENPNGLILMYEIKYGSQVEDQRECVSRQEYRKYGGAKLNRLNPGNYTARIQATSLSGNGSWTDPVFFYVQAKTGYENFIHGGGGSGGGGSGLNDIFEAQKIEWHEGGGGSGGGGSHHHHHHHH

Sequence of human IGF-1R on human non-small cell lung cancer cells (A549) (human) (P08069 31-1367): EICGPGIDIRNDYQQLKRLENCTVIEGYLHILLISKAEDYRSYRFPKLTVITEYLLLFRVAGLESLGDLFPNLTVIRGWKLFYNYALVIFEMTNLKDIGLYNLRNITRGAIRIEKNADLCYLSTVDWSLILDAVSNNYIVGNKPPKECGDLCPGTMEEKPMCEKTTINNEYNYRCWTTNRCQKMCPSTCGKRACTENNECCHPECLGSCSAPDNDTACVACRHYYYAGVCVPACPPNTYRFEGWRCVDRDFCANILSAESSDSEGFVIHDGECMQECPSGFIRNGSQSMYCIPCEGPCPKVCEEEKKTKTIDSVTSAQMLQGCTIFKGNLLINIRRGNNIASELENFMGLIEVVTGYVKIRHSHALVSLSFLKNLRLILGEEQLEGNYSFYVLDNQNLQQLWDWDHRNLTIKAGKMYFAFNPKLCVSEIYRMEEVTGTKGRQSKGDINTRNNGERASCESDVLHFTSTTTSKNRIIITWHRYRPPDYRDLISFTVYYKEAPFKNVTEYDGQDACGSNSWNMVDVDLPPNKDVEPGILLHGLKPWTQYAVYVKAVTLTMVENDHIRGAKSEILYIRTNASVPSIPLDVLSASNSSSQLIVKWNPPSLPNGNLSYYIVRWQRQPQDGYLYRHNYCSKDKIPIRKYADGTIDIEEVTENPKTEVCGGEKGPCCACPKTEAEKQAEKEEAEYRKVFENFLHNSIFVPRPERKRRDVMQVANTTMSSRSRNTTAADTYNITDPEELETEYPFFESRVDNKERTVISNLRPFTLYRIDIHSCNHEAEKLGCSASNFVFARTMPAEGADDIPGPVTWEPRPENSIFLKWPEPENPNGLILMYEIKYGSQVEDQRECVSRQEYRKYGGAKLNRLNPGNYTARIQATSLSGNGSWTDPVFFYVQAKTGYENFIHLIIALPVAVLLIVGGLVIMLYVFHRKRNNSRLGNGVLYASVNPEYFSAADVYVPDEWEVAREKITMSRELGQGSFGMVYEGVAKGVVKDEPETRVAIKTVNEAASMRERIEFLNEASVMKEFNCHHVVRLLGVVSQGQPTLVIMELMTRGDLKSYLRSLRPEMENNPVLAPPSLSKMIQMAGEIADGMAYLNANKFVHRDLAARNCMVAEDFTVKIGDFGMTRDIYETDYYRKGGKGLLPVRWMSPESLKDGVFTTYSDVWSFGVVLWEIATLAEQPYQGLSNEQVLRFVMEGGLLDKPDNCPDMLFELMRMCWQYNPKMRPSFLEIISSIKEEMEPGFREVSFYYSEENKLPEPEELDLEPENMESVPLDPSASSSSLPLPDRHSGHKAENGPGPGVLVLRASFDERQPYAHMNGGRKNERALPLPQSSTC

IC50 (nM), inhibition of IGF1-induced pAKT signaling in A549 cells [1] [nM] | Kd [2] [nM] | koff [2] [s⁻¹] | kon [2] [M⁻¹ s⁻¹] | Substance
0.716 | 0.0175 | 1.47e-05 | 839000 | VRDN-001 (Viridian, WO2023019171) (antibody)
 | 0.267 | 0.00109 | 4.08e+06 | Tepezza (Horizon, US2022356257) (antibody)
